Test results reported in the DeepSol protein solubility set.

Test: soluble on expression in E. coli; label from the status in PepcDB or PDB records

Sequence | soluble on expression in E. coli
MGSDKIHHHHHHMKMTFCRAVCLAAAFLLMGCDEAPETTTASPAAQVLEGKTMGTLWRVSVVGIDAKRAAELQTKIQTQLDADDWLLSTYKNDSALMRFNHSRSLAPWPVSEAMADIVTSALRIGAKTDGAMDITVGPLVNLWGFGPDRQPLHIPTPAQIDAAKAKTGLQHLQVIDRAGHQFLQKDLPDLYVDLSTVGEGYAADHLARLMEQEGIARYLVSVGGALSSRGMNAQGQPWRVAIQKPTDRENAVQAIVDINGHGISTSGSYRNYYELDGKRVSHVIDPQTGRPIEHNLVSVTVIAPTALEADGWDTGLMVLGTQKAQEVVRREGLAVFMIMKEGEGFKTWMSPQFKTFLVSDKN | not soluble
MKYMVVSSPIQEVLRLHKYIEISTTTITVKITNKMSSPVIGITFGNTSSSIAYINPKNDVDVIANPDGERAIPSALSYVGEDEYHGGQALQQLIRNPKNTIINFRDFIGLPFDKCDVSKCANGAPAVEVDGKVGFVISRGEGKEEKLTVDEVVSRHLNRLKLAAEDYIGSAVKEAVLTVPTNFSEEQKTALKASAAKIGLQIVQFINEPSAALLAHAEQFPFEKDVNVVVADFGGIRSDAAAIAVRNGIFTILATAHDLSLGGDNLDTELVEYFASEFQKKYQANPRKNARSLAKLKANSSITKKTLSNATSATISIDSLADGFDYHASINRMRYELVANKVFAQFSSFVDSVIAKAELDPLDIDAVLLTGGVSFTPKLTTNLEYTLPESVEILGPQNKNASNNPNELAASGAALQARLISDYDADELAEALQPVIVNTPHLKKPIGLIGAKGEFHPVLLAETSFPVQKKLTLKQAKGDFLIGVYEGDHHIEEKTLEPIPKEENAEEDDESEWSDDEPEVVREKLYTLGTKLMELGIK | not soluble
MVKVGIIGGSGLEDPNILLDPVTVAVDTPYGKPSDDVVEGTINGVECVLLARHGRKHDIMPGNVNFRANLWALYSRGVDVIIASTACGSLQENVEPGHLLFPDSVFDRTTGRQSTFFDGSYDQAPGVCHIQAHPTYNEKLRQVLISTAERCQLVHHRTGFGVCIEGPRFSTKAESMVFKSWGASLVNMTMMPECILAKELGIPYATTALVTDYDCWKEEDHVTASSVMKVFAANVEKAKTLFVEAVGEIGKIDWSAEILKLKTEARESVMISPDVVIPFLTTDNQKKF | not soluble
MHIADMTMFYAPASGGVRTYLEAKHRHLWHYPGIRHSVLVPGASYRQANGIHEVPAPPLPFGNGYRFPLRRGPWRKVLRNLQPDLIEVGDPYLTAWAALDARRRLDVPVIGFYHSDLPLLVSNRMGAWLGTNADNYVSKLYGHFDRVLAPSRVMAEKLMRLGVADVHVQPLGVDLVTFHPSNRDPGLRQELGLDEETRLLVFAGRGSREKNLPVLLDAIQRLGDGYHLLLVGSNMPTRVPRNTSVVDHFCDSREVARLLASSDALLHAGDQETFGLVALEAMASGIPVVAVRAGALAEIVPERCGVLCAPNNGDAMACAVRELFSHDVELRGQRARRHVERQHAWDAVVAGLLLHYHAVLGDSEARFPRYGLEHHHHHH | not soluble
SADDFGFFSSSESGAPEAAEEDPAAAFLAQQESEIAGIENDEGFGAPAGSHAAPAQPGPTSGAGSEDMGTTVNGDVFQEANGPADGYAAIAQADRLTQEPESIRKWREEQRKRLQELDAASKVTEQEWREKAKKDLEEWNQRQSEQVEKNKINNRASEEAFVKESKEETPGTEWEKVAQLCDFNPKSSKQCKDVSRLRSVLMSLKQTPLSR | soluble
MIRKALLFVEKNETWKKELQIAKSVETVRKRLGQSNLNACSPRKVPLLTVKHVAKQFEYDKIHKDGPVEKWRNIFWSDESKIVLLGGKGSRSYVRRPPRTEYNPRYTFKKFKNCLKGWAFCCLEHHHHHHH | not soluble
MIVLETERLNLRWFDIKDAPFILELVNDPAWIQFIGDKGVRNLEDAKNYIVNGPIDMYNKLRFGLYLVERKEDLTPLGMCGLIKRDSLEDVDIGFAFLETFRSKGYGYESASAIIEYGVQKLGMKRIVAITSIDNIASGKLLEKVGLRFEKIISDSGEDLKLFGYNA | not soluble
GPGSMLGGRHFQRKYEKKQKKKEAKKASQGPLRGAGGSSGVRAAVAAAAGAAVKRKDGSTLKGPVVSHGDFMASRDSANNRKNVPFSSKMEEKVYRKEHRVPKYNSIVDPERQNLAKAAGASSAAQRRRVLRQKGGDDLLDHFRERLNASTFRLLNEQVYNAPTTLASRLLREEATFRDYHTGYHQQLMQWPINPNKLIVESLLGDRRGRFLANKGKSMPGHIPPSWVVADMGCGEAQIAAALKPKGYTVHSFDFFALNSLVTVADTTKVPLADNHVDVCVFSLSLMATDYVKSLFEAFRVLKPKRLLKIIEVRSRVPFPRKFAELVEDIGFDVDYSDVAGDYFVAFDFIKKDGQAAANTQLRHEPGDVLVPSLYKKR | soluble
